T1: SRA domain of mouse UHRF1 (Mus musculus, UniProt Q8VDF2 419-628)
T1 sequence: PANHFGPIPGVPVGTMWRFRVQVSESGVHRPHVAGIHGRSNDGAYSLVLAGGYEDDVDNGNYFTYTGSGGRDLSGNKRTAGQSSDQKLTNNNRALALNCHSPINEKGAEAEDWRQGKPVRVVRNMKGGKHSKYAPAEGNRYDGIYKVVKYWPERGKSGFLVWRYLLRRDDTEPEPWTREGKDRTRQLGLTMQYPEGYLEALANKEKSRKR

T2: GFP-mUHRF1 (Np95) (Mus musculus, UniProt Q8VDF2 1-782)
T2 sequence: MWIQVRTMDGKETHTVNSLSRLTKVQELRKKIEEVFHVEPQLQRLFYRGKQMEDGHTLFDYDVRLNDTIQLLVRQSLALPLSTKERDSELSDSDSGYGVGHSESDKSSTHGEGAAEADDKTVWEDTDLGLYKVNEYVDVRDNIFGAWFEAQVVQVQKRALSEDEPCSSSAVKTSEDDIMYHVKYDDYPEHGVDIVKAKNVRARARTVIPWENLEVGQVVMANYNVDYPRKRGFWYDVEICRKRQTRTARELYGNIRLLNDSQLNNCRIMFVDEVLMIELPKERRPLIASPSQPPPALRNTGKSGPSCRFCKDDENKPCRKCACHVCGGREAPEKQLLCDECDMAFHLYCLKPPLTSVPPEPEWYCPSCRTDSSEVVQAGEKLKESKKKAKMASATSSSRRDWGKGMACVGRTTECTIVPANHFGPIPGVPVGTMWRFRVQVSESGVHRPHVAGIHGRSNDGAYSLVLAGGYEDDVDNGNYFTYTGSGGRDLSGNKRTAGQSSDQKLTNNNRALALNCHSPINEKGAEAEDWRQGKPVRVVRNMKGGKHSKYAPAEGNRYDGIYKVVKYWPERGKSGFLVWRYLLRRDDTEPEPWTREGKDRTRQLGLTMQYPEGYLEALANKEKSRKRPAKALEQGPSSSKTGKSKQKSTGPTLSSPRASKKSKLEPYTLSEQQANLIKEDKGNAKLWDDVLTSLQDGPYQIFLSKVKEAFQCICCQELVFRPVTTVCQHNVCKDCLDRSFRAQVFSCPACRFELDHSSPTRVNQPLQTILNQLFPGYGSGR

T3: mUHRF2-GFP (Mus musculus, UniProt Q7TMI3 1-803)
T3 sequence: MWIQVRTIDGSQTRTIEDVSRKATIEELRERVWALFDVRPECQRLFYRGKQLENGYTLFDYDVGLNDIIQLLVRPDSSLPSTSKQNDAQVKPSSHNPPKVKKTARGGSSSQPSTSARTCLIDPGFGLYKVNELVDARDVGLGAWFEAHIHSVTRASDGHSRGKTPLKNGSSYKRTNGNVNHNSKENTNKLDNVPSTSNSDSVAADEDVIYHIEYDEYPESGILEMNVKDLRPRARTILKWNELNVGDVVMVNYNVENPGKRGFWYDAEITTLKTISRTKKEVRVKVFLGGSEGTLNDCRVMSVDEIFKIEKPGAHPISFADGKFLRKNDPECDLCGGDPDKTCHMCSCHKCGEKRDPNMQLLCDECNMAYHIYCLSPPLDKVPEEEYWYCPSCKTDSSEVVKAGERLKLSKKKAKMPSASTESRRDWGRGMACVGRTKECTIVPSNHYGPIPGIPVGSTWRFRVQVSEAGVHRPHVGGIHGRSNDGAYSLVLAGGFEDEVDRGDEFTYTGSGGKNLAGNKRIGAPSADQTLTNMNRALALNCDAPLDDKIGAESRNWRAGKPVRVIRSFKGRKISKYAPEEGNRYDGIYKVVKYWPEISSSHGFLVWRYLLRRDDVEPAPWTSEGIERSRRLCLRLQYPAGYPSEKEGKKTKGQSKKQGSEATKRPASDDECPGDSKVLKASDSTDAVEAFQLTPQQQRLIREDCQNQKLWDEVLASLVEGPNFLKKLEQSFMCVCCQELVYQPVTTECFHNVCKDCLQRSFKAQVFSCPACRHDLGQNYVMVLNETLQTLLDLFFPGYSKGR

B1: 42 bp C-C' (dsDNA)
DNA 1: GGATGATGACTCTTCTGGTCCGGATGGTAGTTAAGTGTTGAG
DNA 2: CTCAACACTTAACTACCATCCGGACCAGAAGAGTCATCATCC
modifications: none
B2: 42 bp caC-C' (dsDNA)
DNA 1: B1 DNA 1
DNA 2: B1 DNA 2
modifications: 5-carboxylcytosine at central CpG, one strand
B3: 42 bp caC-caC' (dsDNA)
DNA 1: B1 DNA 1
DNA 2: B1 DNA 2
modifications: 5-carboxylcytosine at central CpG, both strands
B4: 42 bp mC-caC' (dsDNA)
DNA 1: B1 DNA 1
DNA 2: B1 DNA 2
modifications: 5-methylcytosine on one strand, 5-carboxylcytosine on the other at central CpG
B5: 42 bp mC-C' (dsDNA)
DNA 1: B1 DNA 1
DNA 2: B1 DNA 2
modifications: 5-methylcytosine at central CpG, one strand

Tests used:
[1] = biological target: T1, SRA domain of mouse UHRF1; test: MST; MST: PBS-T (0.05% Tween-20), 50 nM labelled SRA, 20 min, room temperature; EMSA: 20 mM Tris-HCl pH 7.5, 150 mM NaCl, 0.5 mM EDTA, 1 mM DTT, 100 ng/ul BSA, 250 nM of each DNA, 4.69-300 nM protein, 30 min on ice, 6% PAGE 0.5x TBE; melting: 50 mM Tris-HCl pH 7.5, 0.5 mM b-ME, 10 mM EDTA; conditions: protein: recombinant, tags: His6, NT-647 (RED-tris-NTA) label in MST
[2] = biological target: T2, GFP-mUHRF1 (Np95); test: EMSA, two-colour competition; ATTO647N C-C' DNA as competitor; MST: PBS-T (0.05% Tween-20), 50 nM labelled SRA, 20 min, room temperature; EMSA: 20 mM Tris-HCl pH 7.5, 150 mM NaCl, 0.5 mM EDTA, 1 mM DTT, 100 ng/ul BSA, 250 nM of each DNA, 4.69-300 nM protein, 30 min on ice, 6% PAGE 0.5x TBE; melting: 50 mM Tris-HCl pH 7.5, 0.5 mM b-ME, 10 mM EDTA; conditions: protein: recombinant; tags: GFP (N-terminal by name); label: ATTO550 (EMSA)
[3] = biological target: T3, mUHRF2-GFP; test: as above; conditions: protein: recombinant; tags: GFP (C-terminal by name); label: ATTO550 (EMSA)

Row | Binder | Kd ([1]; label: ATTO550 (EMSA)) | binding signal [2] | other results
1 | B1 |  |  | Kd ([1]; label: ATTO550 or ATTO647N (EMSA)): 1100 ± 150 nM
2 | B2 | 1100 ± 290 nM |  | 
3 | B3 | 230 ± 50 nM | ~2 fold vs C-C' | binding signal [3]: ~2 fold vs C-C'
4 | B4 |  |  | Kd [1]: 390 ± 110 nM
5 | B5 | 750 ± 110 nM | ~1.5 fold vs C-C' | 

From PMC7034832, “Systematic analysis of the binding behaviour of UHRF1 towards different methyl- and carboxylcytosine modification patterns at CpG dyads”
